One series deals with MBP-BmPSI (Bombyx mori, UniProt A8R081 1-703). Put plainly: ITC; 25 C; n = 1.02; RNA dissolved in protein purification buffer, 20 mM Tris, 20 mM NaCl (pH not given); ITC at 25 C; EMSA buffer not given. The settings on record: protein: recombinant; tags: N-terminal His6-MBP-TEV.
Another series concerns the target SlPSI L127G (Spodoptera litura, UniProt A0A9J7DW37 1-732, L127G). Put plainly: competition; unlabeled CE1 against biotin-CE1; RNA dissolved in protein purification buffer, 20 mM Tris, 20 mM NaCl (pH not given); ITC at 25 C; EMSA buffer not given. The settings on record: protein: recombinant; tags: N-terminal His6-MBP-TEV. (In general: Mobility shift assays separate free from complexed probe on a gel.)

MBP-BmPSI, sequence (A8R081 entry or part of it): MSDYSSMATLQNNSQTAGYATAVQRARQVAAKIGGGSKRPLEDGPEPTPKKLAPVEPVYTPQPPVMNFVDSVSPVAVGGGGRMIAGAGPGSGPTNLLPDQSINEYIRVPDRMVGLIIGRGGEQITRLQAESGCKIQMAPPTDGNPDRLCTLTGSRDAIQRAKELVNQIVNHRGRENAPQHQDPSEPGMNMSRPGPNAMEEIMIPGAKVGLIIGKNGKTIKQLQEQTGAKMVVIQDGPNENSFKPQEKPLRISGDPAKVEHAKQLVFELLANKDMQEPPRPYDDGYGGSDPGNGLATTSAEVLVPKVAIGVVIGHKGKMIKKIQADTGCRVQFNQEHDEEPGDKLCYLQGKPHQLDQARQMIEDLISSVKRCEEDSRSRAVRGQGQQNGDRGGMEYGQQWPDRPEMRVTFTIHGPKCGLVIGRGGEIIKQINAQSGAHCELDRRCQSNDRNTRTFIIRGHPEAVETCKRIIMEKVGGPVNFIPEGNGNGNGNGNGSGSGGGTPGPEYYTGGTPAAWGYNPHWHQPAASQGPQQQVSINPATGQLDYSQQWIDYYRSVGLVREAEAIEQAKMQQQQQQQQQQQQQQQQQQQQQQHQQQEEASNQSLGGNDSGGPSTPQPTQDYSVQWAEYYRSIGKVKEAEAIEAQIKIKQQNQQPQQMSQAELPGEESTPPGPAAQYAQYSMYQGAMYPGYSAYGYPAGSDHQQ
SlPSI L127G, sequence (A0A9J7DW37 entry or part of it L127G | L127G L127G): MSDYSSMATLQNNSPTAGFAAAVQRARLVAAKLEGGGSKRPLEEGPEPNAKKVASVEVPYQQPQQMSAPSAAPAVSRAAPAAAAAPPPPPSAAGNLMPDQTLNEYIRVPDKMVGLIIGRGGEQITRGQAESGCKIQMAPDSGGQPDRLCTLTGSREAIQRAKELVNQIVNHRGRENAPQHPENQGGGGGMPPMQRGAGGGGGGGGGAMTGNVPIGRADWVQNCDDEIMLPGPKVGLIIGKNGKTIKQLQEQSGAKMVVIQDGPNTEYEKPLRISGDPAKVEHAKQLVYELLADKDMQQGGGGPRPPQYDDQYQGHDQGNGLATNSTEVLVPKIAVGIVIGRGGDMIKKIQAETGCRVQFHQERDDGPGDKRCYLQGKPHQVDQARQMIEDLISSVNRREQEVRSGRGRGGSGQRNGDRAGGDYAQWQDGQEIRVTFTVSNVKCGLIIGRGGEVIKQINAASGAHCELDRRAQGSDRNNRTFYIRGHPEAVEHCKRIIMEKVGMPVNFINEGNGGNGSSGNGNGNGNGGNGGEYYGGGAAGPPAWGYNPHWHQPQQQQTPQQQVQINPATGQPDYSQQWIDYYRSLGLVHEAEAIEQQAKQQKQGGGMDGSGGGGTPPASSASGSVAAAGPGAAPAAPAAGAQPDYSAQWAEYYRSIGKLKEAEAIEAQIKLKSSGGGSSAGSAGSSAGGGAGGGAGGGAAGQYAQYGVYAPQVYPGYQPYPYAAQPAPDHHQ

On to UUAAUAAUAUAAGUGGUGUA (ssRNA) [CE1 RNA, unlabeled], for which the Ka with MBP-BmPSI is 1.74e+07 M⁻¹. The binding result with SlPSI L127G is on record as “binds”.
